No end group written: not given here.
Columns and labels:
[1] = target: monoclonal anti-TCR Vβ antibody; test: ELISA OD with α-TCR Vβ on plate coated with CDR-H2 homodimer, against control (culture medium/PBS)
[2] = target: monoclonal anti-TCR Vβ antibody; test: ELISA; plate coated with CDR-H2 homodimer, tested against α-TCR Vβ; mean ± SD of three observations
[3] = target: monoclonal anti-TCR Vβ antibody; test: ELISA OD with α-TCR Vβ on plate coated with CDR-H3 homodimer, against control (culture medium/PBS)
[4] = target: monoclonal anti-TCR Vβ antibody; test: ELISA; plate coated with CDR-H3 homodimer, tested against α-TCR Vβ; mean ± SD of three observations
[5] = target: monoclonal anti-TCR Vβ antibody; test: ELISA; plate coated with CDR-L3 homodimer, tested against α-TCR Vβ; mean ± SD of three observations
[6] = target: monoclonal anti-TCR Vβ antibody; test: ELISA OD with α-TCR Vβ on plate coated with CDR-L3 homodimer, against control (culture medium/PBS)

B1: CDR-H2 homodimer peptide (SEQ ID NO:8 with an added N terminal cysteine, dimerised) (peptide)
peptide: CNIYPSDSYTNYNQKFKD
modifications: also: homodimer, linkage not given here
Ratio Test/Control [1]: 1.83
optical density [2]: 0.307 OD

B2: CDR-H3 homodimer peptide (SEQ ID NO:10 with an added N terminal cysteine, dimerised) (peptide)
peptide: CLRGLLPDY
modifications: also: homodimer, linkage not given here
Ratio Test/Control [3]: 2
optical density [4]: 0.182 OD

B3: CDR-L3 homodimer peptide (SEQ ID NO:16 with an added N terminal cysteine, dimerised) (peptide)
peptide: CQQYNSYPLT
modifications: also: homodimer, linkage not given here
optical density [5]: 0.243 OD
Ratio Test/Control [6]: 1.74

From US20090304577A1
